Test [1] concerns the target canonical S. cerevisiae nucleosome (two H2A–H2B dimers) on Widom 601 DNA (S. cerevisiae) (UniProt P04911). Put plainly: single-molecule fluorescence colocalisation; surface-immobilised 113N2.AF488 nucleosome; 5 nM SWR1(647N) with 1 mM ATP injected; 25 mM Tris-HCl pH 7.8, 100 mM KCl, 4% glycerol, 1 mM EDTA, 2 mM MgCl2, 0.2 mg/ml BSA; 22 °C; time to bind and bound lifetime from tMAVEN.

The target of test [2] is heterotypic S. cerevisiae nucleosome (one Htz1–H2B dimer and one H2A–H2B dimer) (S. cerevisiae) (UniProt P04911). The experiment in a line: FRET or BRET; single-molecule FRET (prism-TIRF); biotinylated nucleosome or hexasome with Cy3 on the 2-bp DNA overhang immobilised via neutravidin; 10 nM SWR1(647N) injected; 25 mM Tris-HCl pH 7.8, 100 mM KCl, 4% glycerol, 1 mM EDTA, 2 mM MgCl2, 0.2 mg/ml BSA; room temperature; 100-ms frames. (BRET reads energy transfer from a luciferase to a nearby fluorophore.)

In test [1], “SWR1(Atto647N–Arp6) (from UniProt Q05471 1-1514; Q12509 1-438; Q03433 1-280; Q03388 1-795; Q03940 1-463; Q12464 1-471; P38326 1-303) (complex)” returned a lifetime of the bound complex (stably bound species) of 19 min and a time to bind of 6.58 min. In test [2], this substance yielded a dwell time on the Htz1–H2B face (single fast exponential decay) of 0.63 s.

The values are drawn from PMC11618073.
